B1: D10 E06-hFc (S239/442C T366Y/Y407T), [G4S]1 linker, MC-vc-PAB-MMAE conjugate, #677 (Fc fusion, DAR 4)
chain 1: QVQLVESGGGLVQPGGSLRLSCAASGSIFSVNTMGWYRQAPGKQRDLVAVATSGGTIHYADSVKGRFTISRDNAKNTVYLQMNSLKPEDTAVYYCNLVVPYGMIAGDHDYWGQGTKVTVSSGGGGSEPKSSDKTHTCPPCPAPELLGGPCVFLFPPKPKDTLMISRTPEVTCVVVDVSHEDPEVKFNWYVDGVEVHNAKTKPREEQYNSTYRVVSVLTVLHQDWLNGKEYKCKVSNKALPAPIEKTISKAKGQPREPQVYTLPPSRDELTKNQVSLYCLVKGFYPSDIAVEWESNGQPENNYKTTPPVLDSDGSFFLYSKLTVDKSRWQQGNVFSCSVMHEALHNHYTQKSLCLSPGK
chain 2: QVHLVESGGGLVQAGGSLRLSCAASRRSFSEYAMGWFRQAPGKEREFVAAIGWSGVIEYADSVKGRFTISRDNAKDTVYLQMNSLKPEDTAVYYCAAGLGIRVVSQTPAYWGQGTQVTVSSGGGGSEPKSSDKTHTCPPCPAPELLGGPCVFLFPPKPKDTLMISRTPEVTCVVVDVSHEDPEVKFNWYVDGVEVHNAKTKPREEQYNSTYRVVSVLTVLHQDWLNGKEYKCKVSNKALPAPIEKTISKAKGQPREPQVYTLPPSRDELTKNQVSLTCLVKGFYPSDIAVEWESNGQPENNYKTTPPVLDSDGSFFLTSKLTVDKSRWQQGNVFSCSVMHEALHNHYTQKSLCLSPGK
modifications: MC-vc-PAB-MMAE on Cys of S239C and S442C (EU numbering)
notes: Biparatopic knob-into-hole VHH-hFc heterodimer, DAR 4; also called D10-E06-hFc-vcPAB-MMAE; D10-E06 hFc-vc-MMAE
B2: D10 E06-hFc (S239/442C T366Y/Y407T), [G4S]3 linker, MC-vc-PAB-MMAE conjugate, #634 (Fc fusion, DAR 4)
chain 1: QVQLVESGGGLVQPGGSLRLSCAASGSIFSVNTMGWYRQAPGKQRDLVAVATSGGTIHYADSVKGRFTISRDNAKNTVYLQMNSLKPEDTAVYYCNLVVPYGMIAGDHDYWGQGTKVTVSSGGGGSGGGGSGGGGSEPKSSDKTHTCPPCPAPELLGGPCVFLFPPKPKDTLMISRTPEVTCVVVDVSHEDPEVKFNWYVDGVEVHNAKTKPREEQYNSTYRVVSVLTVLHQDWLNGKEYKCKVSNKALPAPIEKTISKAKGQPREPQVYTLPPSRDELTKNQVSLYCLVKGFYPSDIAVEWESNGQPENNYKTTPPVLDSDGSFFLYSKLTVDKSRWQQGNVFSCSVMHEALHNHYTQKSLCLSPGK
chain 2: QVHLVESGGGLVQAGGSLRLSCAASRRSFSEYAMGWFRQAPGKEREFVAAIGWSGVIEYADSVKGRFTISRDNAKDTVYLQMNSLKPEDTAVYYCAAGLGIRVVSQTPAYWGQGTQVTVSSGGGGSGGGGSGGGGSEPKSSDKTHTCPPCPAPELLGGPCVFLFPPKPKDTLMISRTPEVTCVVVDVSHEDPEVKFNWYVDGVEVHNAKTKPREEQYNSTYRVVSVLTVLHQDWLNGKEYKCKVSNKALPAPIEKTISKAKGQPREPQVYTLPPSRDELTKNQVSLTCLVKGFYPSDIAVEWESNGQPENNYKTTPPVLDSDGSFFLTSKLTVDKSRWQQGNVFSCSVMHEALHNHYTQKSLCLSPGK
modifications: MC-vc-PAB-MMAE on Cys of S239C and S442C (EU numbering)
notes: Biparatopic knob-into-hole VHH-hFc heterodimer, DAR 4; also called D10-E06 hFc-vcPAB-MMAE; D10-E06 hFc-vc-MMAE
B3: D10 A06-hFc (S239/442C T366Y/Y407T), [G4S]1 linker, MC-vc-PAB-MMAE conjugate, #676 (Fc fusion, DAR 4)
chain 1: B1 chain 1
chain 2: QVHLVESGGGLVQAGGSLRLSCAASGRTFLSMGWFRQAPGKEREFVAAISWTGGSTGYADSVKGRFTISRESDKETMYLQMNSLKPEDTAVYYCAARGDVYYGGDDATRYKYWGQGTQVTVSSGGGGSEPKSSDKTHTCPPCPAPELLGGPCVFLFPPKPKDTLMISRTPEVTCVVVDVSHEDPEVKFNWYVDGVEVHNAKTKPREEQYNSTYRVVSVLTVLHQDWLNGKEYKCKVSNKALPAPIEKTISKAKGQPREPQVYTLPPSRDELTKNQVSLTCLVKGFYPSDIAVEWESNGQPENNYKTTPPVLDSDGSFFLTSKLTVDKSRWQQGNVFSCSVMHEALHNHYTQKSLCLSPGK
modifications: MC-vc-PAB-MMAE on Cys of S239C and S442C (EU numbering)
notes: Biparatopic knob-into-hole VHH-hFc heterodimer, DAR 4; The assignment of T366Y to the first named VHH and Y407T to the second follows the order of the name; No paragraph spells out this pair; also called D10-A06-hFc-vcPAB-MMAE; D10-A06 hFc-vc-MMAE
B4: D10 A06-hFc (S239/442C T366Y/Y407T), [G4S]3 linker, MC-vc-PAB-MMAE conjugate, #633 (Fc fusion, DAR 4)
chain 1: B2 chain 1
chain 2: QVHLVESGGGLVQAGGSLRLSCAASGRTFLSMGWFRQAPGKEREFVAAISWTGGSTGYADSVKGRFTISRESDKETMYLQMNSLKPEDTAVYYCAARGDVYYGGDDATRYKYWGQGTQVTVSSGGGGSGGGGSGGGGSEPKSSDKTHTCPPCPAPELLGGPCVFLFPPKPKDTLMISRTPEVTCVVVDVSHEDPEVKFNWYVDGVEVHNAKTKPREEQYNSTYRVVSVLTVLHQDWLNGKEYKCKVSNKALPAPIEKTISKAKGQPREPQVYTLPPSRDELTKNQVSLTCLVKGFYPSDIAVEWESNGQPENNYKTTPPVLDSDGSFFLTSKLTVDKSRWQQGNVFSCSVMHEALHNHYTQKSLCLSPGK
modifications: MC-vc-PAB-MMAE on Cys of S239C and S442C (EU numbering)
notes: Biparatopic knob-into-hole VHH-hFc heterodimer, DAR 4; The assignment of T366Y to the first named VHH and Y407T to the second follows the order of the name; No paragraph spells out this pair; also called D10-A06 hFc-vcPAB-MMAE; D10-A06-hFc-vc-MMAE

target: T1, human ALPI (intestinal alkaline phosphatase) expressed on the surface of CHO cells (human, UniProt P09923 20-503); test: flow cytometry, CHO-ALPI cells
T1 construct: whole, on cells; The cell-surface form has none; also called CHO-ALPI; hALPI
T1 sequence (looked up): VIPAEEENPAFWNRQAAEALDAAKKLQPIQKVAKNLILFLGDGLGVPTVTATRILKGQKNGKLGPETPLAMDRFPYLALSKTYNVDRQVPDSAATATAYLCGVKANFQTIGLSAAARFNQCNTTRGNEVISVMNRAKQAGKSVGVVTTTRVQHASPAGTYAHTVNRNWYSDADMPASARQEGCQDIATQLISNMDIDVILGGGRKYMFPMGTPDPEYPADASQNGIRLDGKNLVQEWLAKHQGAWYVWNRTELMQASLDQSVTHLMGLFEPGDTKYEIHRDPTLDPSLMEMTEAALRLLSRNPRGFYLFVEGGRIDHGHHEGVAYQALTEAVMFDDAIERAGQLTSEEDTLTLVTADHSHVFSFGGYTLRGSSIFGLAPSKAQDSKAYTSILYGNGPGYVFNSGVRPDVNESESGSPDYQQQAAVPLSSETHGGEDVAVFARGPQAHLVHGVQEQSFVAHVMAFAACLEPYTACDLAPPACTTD

| Binder | binding result |
| --- | --- |
| B1 | no binding (tested: 350 nM (highest concentration)) |
| B2 | no binding (tested: 350 nM (highest concentration)) |

target: T2, human ALPL (tissue non-specific alkaline phosphatase) expressed on the surface of CHO cells (human, UniProt P05186 18-501); test: cell-based or functional assay
T2 sequence (looked up): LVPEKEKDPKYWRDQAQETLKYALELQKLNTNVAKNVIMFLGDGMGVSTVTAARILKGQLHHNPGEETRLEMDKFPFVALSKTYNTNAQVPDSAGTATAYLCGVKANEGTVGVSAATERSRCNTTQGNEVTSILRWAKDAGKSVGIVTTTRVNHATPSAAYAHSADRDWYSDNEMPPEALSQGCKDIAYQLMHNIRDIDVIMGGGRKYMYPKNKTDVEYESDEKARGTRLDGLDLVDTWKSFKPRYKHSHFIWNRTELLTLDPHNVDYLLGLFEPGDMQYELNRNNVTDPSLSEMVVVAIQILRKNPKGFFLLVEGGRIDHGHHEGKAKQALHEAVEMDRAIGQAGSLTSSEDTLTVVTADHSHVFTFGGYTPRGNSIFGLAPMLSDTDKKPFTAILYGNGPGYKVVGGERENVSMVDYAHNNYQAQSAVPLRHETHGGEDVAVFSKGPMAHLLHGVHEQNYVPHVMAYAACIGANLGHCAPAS

| Binder | IC50 at 96 h, cell-killing of CHO-ALPL cells [nM] |
| --- | --- |
| B3 | > 1000 |
| B1 | > 1000 |
| B4 | > 1000 |
| B2 | > 1000 |

target: T3, human ALPP (alkaline phosphatase, placental type) expressed on the surface of CHO cells (human, UniProt P05187 23-506); test: cell-based or functional assay
T3 sequence (P05187 23-506 limits assumed): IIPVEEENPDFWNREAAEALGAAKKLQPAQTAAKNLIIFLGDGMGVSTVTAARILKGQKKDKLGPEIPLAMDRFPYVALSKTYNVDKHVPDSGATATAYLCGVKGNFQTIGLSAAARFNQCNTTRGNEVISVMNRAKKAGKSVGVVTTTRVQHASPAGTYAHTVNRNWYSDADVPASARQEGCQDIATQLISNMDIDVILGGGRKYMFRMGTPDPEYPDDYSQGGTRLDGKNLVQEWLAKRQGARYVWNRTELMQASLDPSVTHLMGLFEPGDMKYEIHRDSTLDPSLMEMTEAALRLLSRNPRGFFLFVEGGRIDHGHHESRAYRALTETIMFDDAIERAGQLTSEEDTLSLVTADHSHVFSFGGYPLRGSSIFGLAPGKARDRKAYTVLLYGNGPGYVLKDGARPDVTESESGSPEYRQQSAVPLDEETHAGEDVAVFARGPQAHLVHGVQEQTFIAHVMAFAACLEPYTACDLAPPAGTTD

| Binder | IC50 at 96 h, cell-killing of CHO-ALPP cells [nM] |
| --- | --- |
| B3 | 5 |
| B1 | 3.3 |
| B4 | 10.1 |
| B2 | 9.2 |

target: T4, human ALPPL2 (alkaline phosphatase, germ cell type) expressed on the surface of CHO cells (human, UniProt P10696 20-503); test: cell-based or functional assay
T4 sequence (P10696 20-503): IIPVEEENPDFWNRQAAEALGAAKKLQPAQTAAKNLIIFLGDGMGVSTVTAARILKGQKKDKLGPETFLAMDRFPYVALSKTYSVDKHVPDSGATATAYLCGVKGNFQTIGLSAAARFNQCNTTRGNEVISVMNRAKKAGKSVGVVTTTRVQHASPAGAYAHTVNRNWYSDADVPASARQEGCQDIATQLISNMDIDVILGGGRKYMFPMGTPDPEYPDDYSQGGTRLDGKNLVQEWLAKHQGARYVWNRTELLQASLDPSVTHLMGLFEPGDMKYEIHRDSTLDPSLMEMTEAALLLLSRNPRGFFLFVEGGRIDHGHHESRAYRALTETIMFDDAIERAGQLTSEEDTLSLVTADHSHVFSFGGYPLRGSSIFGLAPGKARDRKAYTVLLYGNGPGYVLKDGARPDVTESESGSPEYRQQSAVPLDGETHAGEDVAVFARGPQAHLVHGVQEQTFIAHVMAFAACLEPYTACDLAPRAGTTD

| Binder | IC50 at 96 h, cell-killing of CHO-ALPPL2 cells [nM] |
| --- | --- |
| B1 | 21.1 |
| B2 | 9.1 |

target: T1, human ALPI (intestinal alkaline …); test: cell-based or functional assay

| Binder | IC50 at 96 h, cell-killing of CHO-ALPI cells [nM] |
| --- | --- |
| B3 | > 1000 |
| B1 | > 1000 |
| B4 | > 1000 |
| B2 | > 1000 |

target: T4, human ALPPL2 (alkaline phosphatase, …); test: flow cytometry on CHO-ALPPL2 cells, apparent KD (KDapp)
Procedure, shortened: (§1)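 Cell-surface binding to CHO cells stably transfected with human ALPP, ALPPL2, ALPI or ALPL; cells detached with 0.1% EDTA/PBS, incubated with biparatopic VHH-hFc drug conjugates over a concentration range for 1 hr on ice. Bound agent detected with FITC anti-human Ab (30 min, ice, dark) by flow cytometry; KDapp derived from binding.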

| Binder | Kd [nM] |
| --- | --- |
| B3 | 5 |
| B1 | 5.5 |
| B4 | 4.4 |
| B2 | 5.9 |

target: T3, human ALPP (alkaline phosphatase, …); test: flow cytometry on CHO-ALPP cells, apparent KD (KDapp)
Procedure, shortened: as §1

| Binder | Kd [nM] |
| --- | --- |
| B3 | 14.4 |
| B1 | 9.4 |
| B4 | 7.6 |
| B2 | 8.3 |

target: T2, human ALPL (tissue non-specific …); test: flow cytometry, CHO-ALPL cells

| Binder | binding result |
| --- | --- |
| B3 | no binding (tested: 350 nM (highest concentration)) |
| B1 | no binding (tested: 350 nM (highest concentration)) |
| B4 | no binding (tested: 350 nM (highest concentration)) |
| B2 | no binding (tested: 350 nM (highest concentration)) |

target: T1, human ALPI (intestinal alkaline …); test: flow cytometry on CHO-ALPI cells

| Binder | MFI on CHO-ALPI cells at 350 nM as percent of MFI on CHO-ALPP cells (KDapp not-determinable) [%] |
| --- | --- |
| B3 | ≤ 1 |
| B4 | ≤ 1 |

From patent US20260216242A1 (ALMAC DISCOVERY, published 2026)
